Assay [1] addresses T1, G5_(845-1508)-A951E-TAP (human), Q8TEQ6.
T1 chain: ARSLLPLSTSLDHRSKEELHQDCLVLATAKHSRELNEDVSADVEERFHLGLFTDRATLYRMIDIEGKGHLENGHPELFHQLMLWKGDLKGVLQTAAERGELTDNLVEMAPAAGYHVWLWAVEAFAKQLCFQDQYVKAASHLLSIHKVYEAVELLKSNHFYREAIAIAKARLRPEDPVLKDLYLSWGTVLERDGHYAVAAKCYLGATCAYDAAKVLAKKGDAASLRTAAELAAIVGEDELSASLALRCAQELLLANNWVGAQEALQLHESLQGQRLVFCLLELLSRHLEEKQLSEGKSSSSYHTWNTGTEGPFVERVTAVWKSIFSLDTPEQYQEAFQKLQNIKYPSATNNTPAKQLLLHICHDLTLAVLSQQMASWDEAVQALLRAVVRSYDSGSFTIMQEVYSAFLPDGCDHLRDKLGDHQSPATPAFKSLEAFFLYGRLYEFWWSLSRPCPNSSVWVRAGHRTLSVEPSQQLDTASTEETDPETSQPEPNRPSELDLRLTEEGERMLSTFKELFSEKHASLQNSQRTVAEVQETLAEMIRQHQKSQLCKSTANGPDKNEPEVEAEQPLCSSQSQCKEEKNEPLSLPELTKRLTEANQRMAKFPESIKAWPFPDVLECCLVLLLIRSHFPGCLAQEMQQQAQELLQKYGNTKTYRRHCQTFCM
As to the kind of experiment: co-IP; G5_(845-1508)-TAP baits expressed 24 h in HEK293; complexes purified by TAP (IgG Sepharose, TEV protease, calmodulin); endogenous Gemin5 and bait detected by WB with anti-Gemin5; Gemin5 intensity normalised to the purified bait. Particulars: remark: other sources report otherwise.

Another assay deals with T2, G5_(845-1508)-L1367P-TAP (human, UniProt Q8TEQ6 845-1508, L1367P).
T2 construct: Vector pcDNA3-CTAP; Expressed at lower levels than the WT; also called RBS1 variant L1367P; source: HEK293, transfected, in soluble cell extract; purified by TAP
T2 sequence (looked up): T1 chain with E107A, L523P
As to the kind of experiment: affinity purification with mass spectrometry; G5_(845-1508)-TAP baits expressed in HEK293; TAP purification, in-gel trypsin digestion, LC-MS/MS, PEAKS; two biological replicates; at least two distinct peptides. To be noted: partners not purified.

In assay [2] the target is T3, G5_(845-1508)-D1019E-TAP (human, UniProt Q8TEQ6 845-1508, D1019E).
T3 construct: Vector pcDNA3-CTAP; source: HEK293, transfected, in soluble cell extract; purified by TAP
T3 sequence (looked up): T1 chain with E107A, D175E
Described as above. To be noted: partners not purified.

Assay [3] concerns the target T4, G5_(845-1508)-R1016C-TAP (human, UniProt Q8TEQ6 845-1508, R1016C).
T4 construct: Vector pcDNA3-CTAP; source: HEK293, transfected, in soluble cell extract; purified by TAP
T4 sequence (looked up): T1 chain with E107A, R172C
Described as above. Particulars: partners not purified.

Assay [4] addresses T3, G5_(845-1508)-D1019E-TAP. As to the kind of experiment: co-IP; G5_(845-1508)-TAP baits expressed 24 h in HEK293; complexes purified by TAP (IgG Sepharose, TEV protease, calmodulin); endogenous Gemin5 and bait detected by WB with anti-Gemin5; Gemin5 intensity normalised to the purified bait. Particulars: partners not purified.
For assay [5], the target named is T4, G5_(845-1508)-R1016C-TAP. The description is as above. To be noted: partners not purified.

Positions count from the first letter of the chain named.

B1: endogenous Gemin5 protein (natural protein, human (endogenous in HEK293), UniProt Q8TEQ6 1-1508, looked up)
chain: MGQEPRTLPPSPNWYCARCSDAVPGGLFGFAARTSVFLVRVGPGAGESPGTPPFRVIGELVGHTERVSGFTFSHHPGQYNLCATSSDDGTVKIWDVETKTVVTEHALHQHTISTLHWSPRVKDLIVSGDEKGVVFCYWFNRNDSQHLFIEPRTIFCLTCSPHHEDLVAIGYKDGIVVIIDISKKGEVIHRLRGHDDEIHSIAWCPLPGEDCLSINQEETSEEAEITNGNAVAQAPVTKGCYLATGSKDQTIRIWSCSRGRGVMILKLPFLKRRGGGIDPTVKERLWLTLHWPSNQPTQLVSSCFGGELLQWDLTQSWRRKYTLFSASSEGQNHSRIVFNLCPLQTEDDKQLLLSTSMDRDVKCWDIATLECSWTLPSLGGFAYSLAFSSVDIGSLAIGVGDGMIRVWNTLSIKNNYDVKNFWQGVKSKVTALCWHPTKEGCLAFGTDDGKVGLYDTYSNKPPQISSTYHKKTVYTLAWGPPVPPMSLGGEGDRPSLALYSCGGEGIVLQHNPWKLSGEAFDINKLIRDTNSIKYKLPVHTEISWKADGKIMALGNEDGSIEIFQIPNLKLICTIQQHHKLVNTISWHHEHGSQPELSYLMASGSNNAVIYVHNLKTVIESSPESPVTITEPYRTLSGHTAKITSVAWSPHHDGRLVSASYDGTAQVWDALREEPLCNFRGHRGRLLCVAWSPLDPDCIYSGADDFCVHKWLTSMQDHSRPPQGKKSIELEKKRLSQPKAKPKKKKKPTLRTPVKLESIDGNEEESMKENSGPVENGVSDQEGEEQAREPELPCGLAPAVSREPVICTPVSSGFEKSKVTINNKVILLKKEPPKEKPETLIKKRKARSLLPLSTSLDHRSKEELHQDCLVLATAKHSRELNEDVSADVEERFHLGLFTDRATLYRMIDIEGKGHLENGHPELFHQLMLWKGDLKGVLQTAAERGELTDNLVAMAPAAGYHVWLWAVEAFAKQLCFQDQYVKAASHLLSIHKVYEAVELLKSNHFYREAIAIAKARLRPEDPVLKDLYLSWGTVLERDGHYAVAAKCYLGATCAYDAAKVLAKKGDAASLRTAAELAAIVGEDELSASLALRCAQELLLANNWVGAQEALQLHESLQGQRLVFCLLELLSRHLEEKQLSEGKSSSSYHTWNTGTEGPFVERVTAVWKSIFSLDTPEQYQEAFQKLQNIKYPSATNNTPAKQLLLHICHDLTLAVLSQQMASWDEAVQALLRAVVRSYDSGSFTIMQEVYSAFLPDGCDHLRDKLGDHQSPATPAFKSLEAFFLYGRLYEFWWSLSRPCPNSSVWVRAGHRTLSVEPSQQLDTASTEETDPETSQPEPNRPSELDLRLTEEGERMLSTFKELFSEKHASLQNSQRTVAEVQETLAEMIRQHQKSQLCKSTANGPDKNEPEVEAEQPLCSSQSQCKEEKNEPLSLPELTKRLTEANQRMAKFPESIKAWPFPDVLECCLVLLLIRSHFPGCLAQEMQQQAQELLQKYGNTKTYRRHCQTFCM
notes: Gemin5, human, full-length endogenous protein of HEK293 cells; also called full-length Gemin5; source: endogenous, HEK293 soluble cell extract
On to B1, for which, in assay [1], the fold by which the recruitment by WT exceeds that by this mutant was found to be 10 fold. Also, the “ratio of peptide reads of region 1-844 to region 845-1508, relative to G5_(845-1508)-WT” value is 0.9 with G5_(845-1508)-L1367P-TAP, 0.56 with G5_(845-1508)-D1019E-TAP [2] and 0.77 with G5_(845-1508)-R1016C-TAP [3]. The “co-IP intensity relative to the WT protein” value came out at 62% with G5_(845-1508)-D1019E-TAP [4] and 58% in the assay with G5_(845-1508)-R1016C-TAP [5].

Values taken from article PMC8989681, “Functional and structural deficiencies of Gemin5 variants associated with neurological disorders” (Life Science Alliance, 2022).
